What was measured:
purified protein [1] = substrate: N#CO; test: purified protein; assay type: biochemical, Oryza sativa; conditions: 5 mM NaHCO3, pH 7.7, 27°C
purified protein [2] = substrate: O=C(O)O; test: purified protein; conditions: 5 mM KCNO, pH 7.7, 27°C
[3] = molecular target: the molecule itself; test: SEC; His-tagged proteins after Ni2+ affinity chromatography on a Superdex 200 10/300 GL column; molecular weight calculated against high molecular weight standards
purified protein [4] = substrate: N#CO; test: purified protein; assay type: biochemical, Arabidopsis thaliana; conditions: 5 mM NaHCO3, pH 7.7, 27°C

B1: His-tagged recombinant OsCYN (enzyme, Oryza sativa, UniProt Q9FWK4 1-168, looked up)
chain: MEGGGGERAAGVVRRLMAAKAESRKSFSEIGEEAGLTNVYVAQLLRRQAQLKPETAPALRAAVPGLTDDLVALMMEPPFRSYHPDIVHEPAIYRLNEAVMHFGESIKEIINEEFGDGIMSAIDFYCSVDKVQGADGKDRVVVTFDGKYLPYSEQRSDHMMSRLTRKTS
notes: cyanase (OsCYN) of Oryza sativa (cv. Zhonghua 11), 168 aa, NP_001064827; cDNA amplified with primers from the start codon to the stop codon, cloned into pET15b; pET15b construct (BamH I and Xho I sites); calculated monomer with tag 22.0 kDa; also called His:OsCYN; source: E. coli BL21 (DE3), purified (Ni2+ chelating column, Superdex 200); copies: 10
Km (purified protein [1]): 7380 µM | Km (purified protein [2]): 630 µM | stoichiometry N [3]: 10

B2: His-tagged recombinant AtCYN (enzyme, Arabidopsis thaliana, UniProt O22683 1-168, looked up)
chain: MEAAKKQSVTNQLLAVKSASGKTFSQLAAETGLTNVYVAQLLRRQAQLKPDTVPKLKEALPALTDELIGDMMSPPWRSYDPNLIQEPTIYRLNEAVMHFGESIKEIINEDFGDGIMSAIDFYCSVDKIKGVDGNNRVVVTLDGKYLSHSEQRTENMVSRLNLKGGTSE
notes: cyanase (AtCYN) of Arabidopsis thaliana, 168 aa, NP_188991; cDNA amplified with primers from the start codon to the stop codon, cloned into pET15b; pET15b construct (BamH I and Xho I sites); calculated monomer with tag 21.9 kDa; also called His:AtCYN; source: E. coli BL21 (DE3), purified (Ni2+ chelating column, Superdex 200); copies: 10
Km (purified protein [2]): 790 µM | stoichiometry N [3]: 10 | Km (purified protein [4]): 940 µM
